Values quoted from earlier work, collected in PMC3631546.

Target: His37 (UniProt position 37, IIGILHLILWI)
Assay: NMR
Conditions: membrane-bound tetrameric channel, no drug mentioned

For “Influenza A M2 proton channel, transmembrane peptide (M2TM) (Influenza A virus (strain not stated))”, the pKa is given as 8.2.
